Reference: article PMC10786891, “Massively parallel profiling of RNA-targeting CRISPR-Cas13d”
Residue numbers refer to the chain shown, from its start.

T1: EsCas13d, nuclease-dead (Eubacterium siraeum, UniProt B0MS50, R295A;H300A;R849A;H854A)
T1 sequence: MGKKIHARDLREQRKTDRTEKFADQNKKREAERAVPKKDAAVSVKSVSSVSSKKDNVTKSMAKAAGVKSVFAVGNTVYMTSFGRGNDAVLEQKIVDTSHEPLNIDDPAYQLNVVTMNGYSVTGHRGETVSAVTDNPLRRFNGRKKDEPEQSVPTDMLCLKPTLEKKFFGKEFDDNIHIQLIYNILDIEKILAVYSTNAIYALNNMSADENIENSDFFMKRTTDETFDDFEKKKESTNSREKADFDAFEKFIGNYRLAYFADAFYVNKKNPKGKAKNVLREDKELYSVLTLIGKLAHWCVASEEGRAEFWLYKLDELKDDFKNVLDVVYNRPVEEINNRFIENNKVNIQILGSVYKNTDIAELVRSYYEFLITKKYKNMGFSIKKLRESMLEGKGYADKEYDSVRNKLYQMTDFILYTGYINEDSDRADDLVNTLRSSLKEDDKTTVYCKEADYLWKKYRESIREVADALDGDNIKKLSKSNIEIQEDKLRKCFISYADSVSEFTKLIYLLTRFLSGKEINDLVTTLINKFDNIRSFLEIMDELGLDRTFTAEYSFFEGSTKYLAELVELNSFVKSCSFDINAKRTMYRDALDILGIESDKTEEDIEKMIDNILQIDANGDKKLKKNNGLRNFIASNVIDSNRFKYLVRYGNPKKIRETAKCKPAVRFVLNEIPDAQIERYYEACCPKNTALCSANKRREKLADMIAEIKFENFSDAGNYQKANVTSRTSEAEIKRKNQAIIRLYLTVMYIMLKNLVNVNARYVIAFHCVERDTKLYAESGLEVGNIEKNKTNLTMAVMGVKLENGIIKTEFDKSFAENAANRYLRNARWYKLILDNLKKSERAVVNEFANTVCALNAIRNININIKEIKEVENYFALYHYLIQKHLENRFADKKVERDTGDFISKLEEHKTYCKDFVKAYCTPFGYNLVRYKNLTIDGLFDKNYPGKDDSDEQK

B1: target 2 MT 5'PFS AUG 3'PFS AAA (mixed)
RNA 1: CACCCGUGCAAAAUUGCAGGGGUCUAAAACCUUCUCCAAAUUGUUUCAUCCU
RNA 2: GGGAAUGGAUCCACAUCUACGAAUUCAUGAGGAUGAAACAAUUUGGAGAAGAAAAGAUCGGAAGAGCACACGU
B2: target 2 MT 5'PFS AUU 3'PFS CAU (mixed)
RNA 1: B1 RNA 1
RNA 2: B1 RNA 2 with G29U, A52C, A54U
B3: target 2 MT 5'PFS CGC 3'PFS CGA (mixed)
RNA 1: B1 RNA 1
RNA 2: B1 RNA 2 with A27C, U28G, G29C, A52C, A53G
B4: target 2 MT 5'PFS AUG 3'PFS AAC (mixed)
RNA 1: B1 RNA 1
RNA 2: B1 RNA 2 with A54C
B5: target 2 MT 5'PFS CAU 3'PFS CUU (mixed)
RNA 1: B1 RNA 1
RNA 2: B1 RNA 2 with A27C, U28A, G29U, A52C, A53U, A54U
B6: target 2 MT 5'PFS UAG 3'PFS AUC (mixed)
RNA 1: B1 RNA 1
RNA 2: B1 RNA 2 with A27U, U28A, A53U, A54C
B7: target 2 MT 5'PFS GGG 3'PFS UAC (mixed)
RNA 1: B1 RNA 1
RNA 2: B1 RNA 2 with A27G, U28G, A52U, A54C
B8: target 2 MT 5'PFS AUG 3'PFS CCU (mixed)
RNA 1: B1 RNA 1
RNA 2: B1 RNA 2 with A52C, A53C, A54U
B9: target 2 MT 5'PFS GCG 3'PFS ACA (mixed)
RNA 1: B1 RNA 1
RNA 2: B1 RNA 2 with A27G, U28C, A53C
B10: target 2 MT 5'PFS ACC 3'PFS CUU (mixed)
RNA 1: B1 RNA 1
RNA 2: B1 RNA 2 with U28C, G29C, A52C, A53U, A54U
B11: target 2 MT 5'PFS GCG 3'PFS UAC (mixed)
RNA 1: B1 RNA 1
RNA 2: B1 RNA 2 with A27G, U28C, A52U, A54C
B12: target 2 MT 5'PFS UUG 3'PFS CUA (mixed)
RNA 1: B1 RNA 1
RNA 2: B1 RNA 2 with A27U, A52C, A53U
B13: target 2 MT 5'PFS GCG 3'PFS UAU (mixed)
RNA 1: B1 RNA 1
RNA 2: B1 RNA 2 with A27G, U28C, A52U, A54U
B14: target 2 MT 5'PFS UAG 3'PFS AUA (mixed)
RNA 1: B1 RNA 1
RNA 2: B1 RNA 2 with A27U, U28A, A53U
B15: target 2 MT 5'PFS UAA 3'PFS CCG (mixed)
RNA 1: B1 RNA 1
RNA 2: B1 RNA 2 with A27U, U28A, G29A, A52C, A53C, A54G
B16: target 2 MT 5'PFS GCG 3'PFS ACC (mixed)
RNA 1: B1 RNA 1
RNA 2: B1 RNA 2 with A27G, U28C, A53C, A54C
B17: target 2 MT 5'PFS UAG 3'PFS AUG (mixed)
RNA 1: B1 RNA 1
RNA 2: B1 RNA 2 with A27U, U28A, A53U, A54G
B18: target 2 MT 5'PFS CAU 3'PFS CUA (mixed)
RNA 1: B1 RNA 1
RNA 2: B1 RNA 2 with A27C, U28A, G29U, A52C, A53U
B19: target 2 MT 5'PFS CGC 3'PFS CGU (mixed)
RNA 1: B1 RNA 1
RNA 2: B1 RNA 2 with A27C, U28G, G29C, A52C, A53G, A54U
B20: target 2 MT 5'PFS CGC 3'PFS UUU (mixed)
RNA 1: B1 RNA 1
RNA 2: B1 RNA 2 with A27C, U28G, G29C, A52U, A53U, A54U
B21: target 2 MT 5'PFS CAC 3'PFS AGU (mixed)
RNA 1: B1 RNA 1
RNA 2: B1 RNA 2 with A27C, U28A, G29C, A53G, A54U
B22: target 2 MT 5'PFS GAA 3'PFS AAA (mixed)
RNA 1: B1 RNA 1
RNA 2: B1 RNA 2 with A27G, U28A, G29A
B23: target 2 MT 5'PFS GCG 3'PFS UAA (mixed)
RNA 1: B1 RNA 1
RNA 2: B1 RNA 2 with A27G, U28C, A52U
B24: target 2 MT 5'PFS CGC 3'PFS UUC (mixed)
RNA 1: B1 RNA 1
RNA 2: B1 RNA 2 with A27C, U28G, G29C, A52U, A53U, A54C
B25: target 2 MT 5'PFS GAA 3'PFS AAG (mixed)
RNA 1: B1 RNA 1
RNA 2: B1 RNA 2 with A27G, U28A, G29A, A54G
B26: target 2 MT 5'PFS GCG 3'PFS ACG (mixed)
RNA 1: B1 RNA 1
RNA 2: B1 RNA 2 with A27G, U28C, A53C, A54G
B27: target 2 MT 5'PFS UAA 3'PFS CCA (mixed)
RNA 1: B1 RNA 1
RNA 2: B1 RNA 2 with A27U, U28A, G29A, A52C, A53C
B28: target 2 MT 5'PFS CGC 3'PFS CGG (mixed)
RNA 1: B1 RNA 1
RNA 2: B1 RNA 2 with A27C, U28G, G29C, A52C, A53G, A54G
B29: target 2 MT 5'PFS GAA 3'PFS AAC (mixed)
RNA 1: B1 RNA 1
RNA 2: B1 RNA 2 with A27G, U28A, G29A, A54C
B30: target 2 MT 5'PFS CGC 3'PFS CGC (mixed)
RNA 1: B1 RNA 1
RNA 2: B1 RNA 2 with A27C, U28G, G29C, A52C, A53G, A54C
B31: target 2 MT 5'PFS GCG 3'PFS ACU (mixed)
RNA 1: B1 RNA 1
RNA 2: B1 RNA 2 with A27G, U28C, A53C, A54U
B32: target 2 MT 5'PFS GGG 3'PFS UAG (mixed)
RNA 1: B1 RNA 1
RNA 2: B1 RNA 2 with A27G, U28G, A52U, A54G
B33: target 2 MT 5'PFS ACC 3'PFS CUG (mixed)
RNA 1: B1 RNA 1
RNA 2: B1 RNA 2 with U28C, G29C, A52C, A53U, A54G
B34: target 2 MT 5'PFS GAA 3'PFS AAU (mixed)
RNA 1: B1 RNA 1
RNA 2: B1 RNA 2 with A27G, U28A, G29A, A54U
B35: target 2 MT 5'PFS ACC 3'PFS CUC (mixed)
RNA 1: B1 RNA 1
RNA 2: B1 RNA 2 with U28C, G29C, A52C, A53U, A54C
B36: target 1 insG 3' of 10,insA 3' of 3 (mixed)
RNA 1: CACCCGUGCAAAAAUGCAGGGGUCUAAAACUGAGCGGAUAACCUCUCUAUGG
RNA 2: GGGAAUGGAUCCACAUCUACGAAUUCGUACCAUAGAGAGGUUGAUCCGCUACACCGAGAUCGGAAGAGCACACGU
B37: target 1 insC 3' of 19,insG 3' of 4 (mixed)
RNA 1: B36 RNA 1
RNA 2: GGGAAUGGAUCCACAUCUACGAAUUCGUACCAUCAGAGAGGUUAUCCGCGUCACCGAGAUCGGAAGAGCACACGU
B38: target 1 insA 3' of 21,insG 3' of 9 (mixed)
RNA 1: B36 RNA 1
RNA 2: B37 RNA 2 with U33A, C34U, U45G, C46U, G48C, C49G, G50C

What follows are binders tested against T1, EsCas13d, nuclease-dead (assay: crRNA (strand 1, pre-loaded); Mg2+; 40 mM Tris-HCl pH 7.5, 150 mM NaCl, 6 mM MgCl2, 1 mM DTT, 0.1% Tween-20, 0.2 mg/ml BSA; 25 C; 10 min per concentration, then washed). Conditions: tags: His6-TwinStrep-SUMO cleaved; N-terminal SNAP kept (SNAP-Surface 488); label: 3' end held by stalled T7 RNA polymerase.
For B1, the Kd was 7.8 ± 1.6 nM. B2 was tested, and the Kd was 5.7 ± 0.7 nM. For B3, the Kd was 6.7 ± 2.1 nM. With B4 the Kd was 18 ± 6 nM. For B5, the Kd was 4.6 ± 0.6 nM. With B6 the Kd was 3.3 ± 0.7 nM. With B7 the Kd was 9.6 ± 0.7 nM. Work on B8 yielded a Kd of ~70 nM. With B9 the Kd was 16 ± 4 nM. B10 was tested, and the Kd was 6.3 ± 1.6 nM. B11 showed a Kd of 13.1 ± 3.1 nM. Binder B12 has a Kd of 14.9 ± 1.7 nM. Binder B13 has a Kd of 14.9 ± 2.4 nM. For B14, the Kd was 2.63 ± 0.33 nM. With B15 the Kd was 5.6 ± 0.6 nM. Binder B16 has a Kd of 30 ± 8 nM. For B17, the Kd was 3.21 ± 0.28 nM. Binder B18 has a Kd of 4.1 ± 0.6 nM. B19 was tested, and the Kd was 3.5 ± 0.4 nM. B20 was tested, and the Kd was 17 ± 4 nM. Binder B21 has a Kd of 2.7 ± 0.6 nM. Work on B22 yielded a Kd of 5.7 ± 1.1 nM. In the case of B23, the Kd is reported as 9.6 ± 2.4 nM. In the case of B24, the Kd is reported as 12.1 ± 1.9 nM. With B25 the Kd was 8.2 ± 2.1 nM. Work on B26 yielded a Kd of 14 ± 2.1 nM. B27 gave a Kd of 20 ± 6 nM. B28 showed a Kd of 7.3 ± 1.2 nM. B29 was tested, and the Kd was 11 ± 1.6 nM. For B30, the Kd was 4.1 ± 0.4 nM. In the case of B31, the Kd is reported as 13.8 ± 1.2 nM. For B32, the Kd was 8 ± 0.6 nM. B33 was tested, and the Kd was 9 ± 1.1 nM. With B34 the Kd was 16 ± 7 nM. For B35, the Kd was 7.4 ± 1.2 nM. B36 was tested, and the Kd was 45 ± 6 nM. Work on B37 yielded a Kd of 21.5 ± 1.3 nM. B38 was tested, and the Kd was 46 ± 6 nM.
